According to paper PMC2953525, “Subtle Alterations in PCNA-Partner Interactions Severely Impair DNA Replication and Repair” (PLoS Biology, 2010):

How the values were obtained:
[1] = test system: Msh6; assay: Yeast two hybrid (Y2H) analysis of PCNA-partner interaction; assay type: binding; settings: YRG2 strain, growth on selective agar plates lacking histidine; growth similar to WT PCNA denoted as 1
Protocol: (§1) For the Y2H assay, we used the YRG2 host strain, shown to be highly efficient in coupling the strength of protein-protein interactions with growth on media lacking histidine. Selected PCNA mutants were characterized for their ability to bind each of 12 main PCNA partners to obtain specificity profiles (Table 1, Table S1, and Figures S4–S5). […] However, in some cases a strong trade-off between the bindings of different partners was observed.
(§2) Y2H analysis was performed using the Yeast Two Hybrid Phagemid vector kit (Stratagene), following the manufacturer's instructions. The pAD-PCNA-WT/mutant plasmids were used as bait while plasmids encoding 12 different PCNA partners (Table 1 and Table S1) were used as prey. The YRG2 host strain (Stratagene) was cotransformed with pAD-PCNA WT/mutant and pBD-partner plasmids in all possible combinations using the LiAC method. Single transformants were grown in liquid SC-Leu-Trp to O.D600 10, washed twice with DDW, and diluted to an initial OD600 of 0.3. A series of 10-fold serial dilutions was then spotted onto selective SC-Leu-Trp-His plates and incubated at 30°C for 3 d. For quantitative Y2H, the generation time of the indicated mutants and their respective partners were calculated from their growth curves in liquid SC-Leu-Trp-His media. Cells were grown overnight in SC-Leu-Trp, washed twice with ddH2O, and diluted by a factor of 1∶50 into 10 ml of pre-warmed SC-Leu-Trp-His. O.D600 measurements of the cultures were taken at the indicated time; the generation time (τ) was calculated from the growth curves according to the equation ODt = OD0×2^t/τ. The generation time calculated for each culture is an average of at least 3 independent experiments.

[2] = test system: Pol32; assay: as above; assay type: binding; settings: for Binding of PCNA Mutants to Target Partners: Pol32, fold increase or decrease (quantitative Y2H): footnote c: generation time in liquid selective media lacking histidine relative to cells expressing WT PCNA, average of at least 3 independent experiments; for Binding of PCNA Mutants to Target Partners: Pol32 (Y2H): YRG2 strain, growth on selective agar plates lacking histidine, growth similar to WT PCNA denoted as 1
Protocol: as §1, §2

[3] = test system: Rad27; assay: as above; assay type: binding; settings: for Binding of PCNA Mutants to Target Partners: Rad27, fold increase or decrease (quantitative Y2H): footnote c: generation time in liquid selective media lacking histidine relative to cells expressing WT PCNA, average of at least 3 independent experiments
Protocol: as §1, §2

[4] = test system: Rad30; assay: as above; assay type: binding; settings: for Binding of PCNA Mutants to Target Partners: Rad30, fold increase or decrease (quantitative Y2H): footnote c: generation time in liquid selective media lacking histidine relative to cells expressing WT PCNA, average of at least 3 independent experiments; for Binding of PCNA Mutants to Target Partners: Rad30 (Y2H): YRG2 strain, growth on selective agar plates lacking histidine, growth similar to WT PCNA denoted as 1
Protocol: as §1, §2

[5] = test system: Ung1; assay: as above; assay type: binding; settings: YRG2 strain, growth on selective agar plates lacking histidine; growth similar to WT PCNA denoted as 1
Protocol: as §1, §2

[6] = test system: CAN1 gene; assay: Spontaneous mutation rate, CAN1 reporter assay, fluctuation analysis; assay type: cell-based, yeast; settings: for Spontaneous Mutation Rate Can^R (Fold Increase): Table 1, compared to the WT POL30 strain
Description: It was previously shown that PCNA contains another site of regulation (i.e. K164) that is modulated by ubiquitination or SUMOylation (Figure 1B) and that is crucial for the recruitment of TLS polymerases,[37]. To test whether the K164 regulatory site is active in the PCNA mutant strains, we examined the spontaneous mutation rate in these strains (Table 1). Increase in spontaneous mutation rate can indicate the recruitment of TLS polymerases to PCNA through K164 ubiquitination,[37]. Alternatively, these mutants can indirectly affect the spontaneous mutation rate by reducing DNA replication processivity and causing replication fork stalling, thereby leading to TLS recruitment. These mutants can also indirectly alter Pol-δ or Pol-ε proofreading leading to TLS recruitment. We measured the spontaneous mutation rate using the CAN1 reporter assay by monitoring the ability of the PCNA mutant strains to grow in the presence of canavanine, a toxic analogue of arginine. […] To examine whether Polζ, the major TLS polymerase,[37], is recruited in vivo to PCNA mutants showing increased affinity for Rad27 and Pol32 (pol30-Rad27E6 and pol30-Pol32E5, Table 1) upon K164 ubiquitination, we measured the spontaneous mutation rates of these mutant strains on the background of either mutated rev3 encoding the catalytic subunit of Polζ or mutated rad18 encoding the K164 ubiquitin ligase or K164R mutation (Figure 7, Table 2).
(§3) Novel haploids containing PCNA mutants were generated using the plasmid shuffling method. Briefly, a pol30::KanMX magic marker heterozygote diploid strain BY4743 (Open Biosystem) was transformed with plasmid pRS316-POL30. Following dissection of the diploid, a haploid containing the CAN+ gene and plasmid pRS316-POL30 as a sole source of PCNA was generated. This host strain was transformed with selected pRS315-pol30 mutants, plated on SC-Ura-Leu plates, followed by replica plating to SC-Leu+5FOA plates. Haploids, containing PCNA mutants as a sole source, were further verified by plating on either SC-Leu or SC-Ura plates. For testing selected PCNA mutants, a haploid containing rad27::HYG, rad30::HYG, pol32::HYG, msh6::HYG, or ung1::HYG were generated using plasmid pAG32 by conventional genetic approaches. Growth of the PCNA mutant strains in the presence of 120 mM HU (Toronto Research Chemicals) or 0.02% MMS (Sigma) was performed as described. To examine the effects of partner overexpression on pol30 mutant strains, these strains were transformed with various plasmids containing GST-tagged PCNA partner encoding genes under the control of a GAL1/10 inducible promoter, as previously described. Overnight cultures were plated in serial dilutions on SC-Ura containing either glucose or galactose with or without DNA-damaging agents, as described above.
The mutation rates for the different pol30 mutant strains described in this study were determined by fluctuation test analysis using the Lea and Coulson method,[48]. The different strains were plated as single colonies on SC-Leu plates and allowed to grow for 3 d at 30°C. At least 25 single colonies from each strain were excised from the plate and resuspended in 1 ml of sterile water to an O.D600 of 0.7. Appropriate dilutions of the cells were then plated on SC-Leu and SC-Leu-Arg+canavanine ([…]) to obtain the number of viable cells (Nt) and the number of canavanine-resistant cells (r), respectively. Using the Lea and Coulson method, the number of mutations (m) per colony was derived from the number of canavanine resistant-colonies (r) across parallel cultures, using the following equation: […]. The m values were then used to calculate the mutation rate, M, using the following equation: M = m/Nt, where Nt is the average number of viable cells per plating. The different M values were sorted to obtain the median. […]

[7] = test system: yeast strains; assay: Growth sensitivity of PCNA mutant strains to MMS and HU; assay type: cell-based; settings: for effect of rad30 deletion on strain growth sensitivity phenotype: Figure 6B; for effect of rad27 deletion on growth sensitivity of the mutant strain: Figure S8, parent vs rad27-deleted strains; for effect of overexpression of Rad27, Rad30, Pol32, and Msh6 on growth sensitivity to DNA damaging agents: Figure S9, GAL1/10 inducible GST-tagged partners
Description: Next, we examined the sensitivity of strains containing single deletions of each of the five different partners on a WT PCNA background. […] We first examined whether the rad27 deletion can suppress the lethality of a strain containing the pol30-Rad27L1 or pol30-Rad27L2 mutants (Figure 6A). […] In addition, we examined whether rad30 deletion, ung1 deletion, and msh6 deletion can suppress the phenotypes of the pol30 mutants with increased affinity to Rad30, Ung1, and Msh6, respectively (Figure 6B–D). […] However, since the suppression of the strain phenotypes was not complete, additional factors, such as minor effects of the mutations on other PCNA-partner interactions, may play a partial role in the sensitivity phenotype of the examined pol30 mutants. […] We also examined whether overexpression of different partners can suppress the growth sensitivity of the pol30 mutants, however no suppression was observed (Figure S9).
as §3

Molecule	Binding of PCNA Mutants to Target Partners: Msh6 (Y2H) [1]	Binding of PCNA Mutants to Target Partners: Pol32, fold increase or decrease (quantitative Y2H) [2]	Binding of PCNA Mutants to Target Partners: Rad27, fold increase or decrease (quantitative Y2H) [3]	Binding of PCNA Mutants to Target Partners: Rad30, fold increase or decrease (quantitative Y2H) [4]	Binding of PCNA Mutants to Target Partners: Ung1 (Y2H) [5]	Spontaneous Mutation Rate Can^R (Fold Increase) [6]	effect of rad30 deletion on strain growth sensitivity phenotype [7]	effect of rad27 deletion on growth sensitivity of the mutant strain [7]	Binding of PCNA Mutants to Target Partners: Pol32 (Y2H) [2]	Binding of PCNA Mutants to Target Partners: Rad30 (Y2H) [4]	Mutation Rate (CAN1 locus) ([6]; Table 2, median, brackets = 95% confidence interval, at least 25 independent determinations)	effect of overexpression of Rad27, Rad30, Pol32, and Msh6 on growth sensitivity to DNA damaging agents [7]	Binding of PCNA Mutants to Target Partners: Rad27 (Y2H) ([3]; YRG2 strain, growth on selective agar plates lacking histidine, growth similar to WT PCNA denoted as 1)	Fold Increase Relative to WT (mutation rate, CAN1 locus) ([6]; Table 2)
pol30-Rad30E2: PCNA mutant evolved for Rad30, IDCL sequence DDDWDFLKILEL (protein, left off: Gal4 activation domain, end not stated, kept) MLEAKFEEASLFKRIIDGFKDCVQLVNFQCKEDGIIAQAVDDSRVLLVSLEIGVEAFQEYRCDHPVTLGMDLTSLSKILRCGNNTDTLTLIADNTPDSIILLFEDTKKDRIAEYSLKLMDDDWDFLKILELQYDSTLSLPSSEFSKIVRDLSQLSDSINIMITKETIKFVADGDIGSGSVIIKPFVDMEHPETSIKLEMDQPVDLTFGAKYLLDIIKGSSLSDRVGIRLSSEAPALFQFDLKSGFLQFFLAPKFNDEE	1	0.4 ^c fold	0.4 ^c fold	1.4 ^c fold	1	10 fold	suppression	suppression of the growth sensitivity						
pol30-Rad30E9: PCNA mutant evolved for Rad30, IDCL sequence DNDWDFLKIDEL (protein, left off: Gal4 activation domain, end not stated, kept) MLEAKFEEASLFKRIIDGFKDCVQLVNFQCKEDGIIAQAVDDSRVLLVSLEIGVEAFQEYRCDHPVTLGMDLTSLSKILRCGNNTDTLTLIADNTPDSIILLFEDTKKDRIAEYSLKLMDNDWDFLKIDELQYDSTLSLPSSEFSKIVRDLSQLSDSINIMITKETIKFVADGDIGSGSVIIKPFVDMEHPETSIKLEMDQPVDLTFGAKYLLDIIKGSSLSDRVGIRLSSEAPALFQFDLKSGFLQFFLAPKFNDEE	1		0.5 ^c fold	1.6 fold	1	15.3 fold	suppression		1					
pol30-Rad27E6: PCNA mutant evolved for Rad27, IDCL sequence DGDYDILKIREL (protein, left off: Gal4 activation domain, end not stated, kept) MLEAKFEEASLFKRIIDGFKDCVQLVNFQCKEDGIIAQAVDDSRVLLVSLEIGVEAFQEYRCDHPVTLGMDLTSLSKILRCGNNTDTLTLIADNTPDSIILLFEDTKKDRIAEYSLKLMDGDYDILKIRELQYDSTLSLPSSEFSKIVRDLSQLSDSINIMITKETIKFVADGDIGSGSVIIKPFVDMEHPETSIKLEMDQPVDLTFGAKYLLDIIKGSSLSDRVGIRLSSEAPALFQFDLKSGFLQFFLAPKFNDEE	1		1.5 ^c fold		1	8 fold		only weak effect	1	1	1.2×10^−6 [8.0, 13.9]	did not reduce the growth sensitivity		
pol30-Pol32E5: PCNA mutant evolved for Pol32, IDCL sequence DADNDFLKISEL (protein, left off: Gal4 activation domain, end not stated, kept) MLEAKFEEASLFKRIIDGFKDCVQLVNFQCKEDGIIAQAVDDSRVLLVSLEIGVEAFQEYRCDHPVTLGMDLTSLSKILRCGNNTDTLTLIADNTPDSIILLFEDTKKDRIAEYSLKLMDADNDFLKISELQYDSTLSLPSSEFSKIVRDLSQLSDSINIMITKETIKFVADGDIGSGSVIIKPFVDMEHPETSIKLEMDQPVDLTFGAKYLLDIIKGSSLSDRVGIRLSSEAPALFQFDLKSGFLQFFLAPKFNDEE	1	1.5 ^c fold			1	13.3 fold				1		did not reduce the growth sensitivity	1	13 fold
